Test results from paper PMC7966918 (Cell Research, 2021).

Biological target: T1, SARS-CoV-2 S protein extracellular domain (S-ECD, 1–1208 aa) (SARS-CoV-2, Wuhan-Hu-1 (GenBank …, UniProt P0DTC2, proline substitution at residue 986 | proline substitution at residue 987 | …))
T1 construct: also called S trimer; trimeric S protein
Test: cryo-EM structure
Conditions: both partners purified

B1: P5A-2G9 (full-length IgG) (antibody, V domains shown)
VH: QVQLVESGGGVVQPGRSLRLSCAASGFTFSSYGMHWVRQAPGKGLEWVAVIWYDGSNKYYADSVKGRFTISRDNSKNTLYLQMNSLRAEDTAVYYCARWFHTGGYFDYWGQGTLVTVSS
VL: QPVLTQPPSSSASPGESARLTCTLPSDINVSSYNIYWYQQKPGSPPRYLLYYYSDSDKGQGSGVPSRFSGSKDASANTGILLISGLQSEDEADYYCMIWPSNALYVFGTGTKVTVL
**Q.** Does B1 bind?
**A.** Result: binds

B2: P2B-1A10 (full-length IgG) (antibody, V domains shown)
VH: EVQLVESGGGLIQPGGSLRLSCAASGFTVSSNYMSWVRQAPGKGLEWVSVIYSGGSTYYADSVKGRFTISRDNSKNTLYLQMNSLRAEDTAVYYCAREGPKSITGTAFDIWGQGTIVTVSS
VL: DIQMTQSPSSLSASVGDRVTITCQASQDISNYFNWYQQKPGKAPKLLIYDASNLETGVPSRFSGSGSGTDFTFTISSLQPEDIATYYCQQYDNLPMYTFGQGTKLEIK
**Q.** Does B2 bind?
**A.** Result: binds
